Two substances from paper PMC10550955 can be followed below.

One test has as its target γ-globulin. Nature of the test: SPR; homotypic: protein immobilised on CM5 or CM3 chip (~800-1000 RU), the same protein injected at increasing concentrations; BIAcore T200; 20 mM sodium phosphate buffer, pH 7.4; two-state model, one-state model for α-Syn and Chymo.
A further test addresses β-cas. The test is described as above.

Bounds are passed on as bounds.

In the test with γ-globulin, γ-globulin (natural protein) returned a Kd of under 0.5 µM.

For the substance β-cas (natural protein), the Kd with β-cas is under 0.5 µM.
